Here are results for one molecule from US20110171285A1, “Design of Fibrinogen and Fibrinogen Derived Products with Reduced Bacterial Binding by Using Modified Sequences of Fibrinogen Chains” (priority 2009, published 2011).

This assay has as its target human platelet integrin αIIbβ3 (human), P08514. Kind of assay: competition ELISA: integrin αIIbβ3 coated, 10 nM human Fg added with varying peptide, bound Fg detected with anti-Fg antibodies/HRP.

As to GQQHHLGGAKQAGDV (modifications not checked) [human 15-mer C-terminal Fg γ-chain peptide (…)], the IC50 (read off the curve) worked out at 10 µM.
